# Data reported in US20200140562A1 (Innovent, published 2020).
# Where a chain is given by its changes, count along the chain named.
# T1: Human biotinylated OX40-His monomer (human, UniProt P43489 29-216, limits assumed, biotinylated)
# T1 construct: Bought from Acro Biosystems; also called biotin-OX-40 monomer; not shown: His tag
# T1 sequence (looked up): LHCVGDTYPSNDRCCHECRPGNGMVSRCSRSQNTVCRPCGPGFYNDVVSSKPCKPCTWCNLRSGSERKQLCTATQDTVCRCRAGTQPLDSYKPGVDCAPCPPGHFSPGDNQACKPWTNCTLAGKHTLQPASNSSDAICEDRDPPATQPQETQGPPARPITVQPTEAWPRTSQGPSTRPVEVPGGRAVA
# T2: human OX40 on cells (CHO-hOX40, 293HEK-hOX40, Jurkat-hOX40, activated primary CD4+ T cells) (human, UniProt P43489 29-277)
# T2 construct: whole, on cells; The cell type is told in each assay; also called CHO-OX40
# T2 sequence (looked up): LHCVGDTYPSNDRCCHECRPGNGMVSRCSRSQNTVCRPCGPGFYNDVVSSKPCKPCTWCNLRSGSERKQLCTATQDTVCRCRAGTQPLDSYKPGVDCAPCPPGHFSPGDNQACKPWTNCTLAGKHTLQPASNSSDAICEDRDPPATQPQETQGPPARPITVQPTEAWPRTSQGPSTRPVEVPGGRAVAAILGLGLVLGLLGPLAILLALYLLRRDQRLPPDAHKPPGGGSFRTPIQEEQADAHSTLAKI
# T3: mouse OX40Fc (Acro Biosystems) (mouse, UniProt P47741 20-211, limits assumed)
# T3 construct: Bought; not shown: Fc
# T3 sequence (looked up): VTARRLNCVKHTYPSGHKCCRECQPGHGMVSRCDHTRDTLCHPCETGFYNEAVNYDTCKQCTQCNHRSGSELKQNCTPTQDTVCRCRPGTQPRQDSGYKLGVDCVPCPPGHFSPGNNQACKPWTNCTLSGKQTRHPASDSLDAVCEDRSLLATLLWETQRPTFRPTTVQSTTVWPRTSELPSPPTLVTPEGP
# B1: ADI-25653, Fab (Fab, V domains shown)
# VH: QVQLVESGGGVVQPGRSLRLSCAASGFTFVSYNMHWVRQAPGKGLEWVAVIMYDGSAKYYADSVKGRFTISRDNSKNTLYLQMNSLRAEDTAVYYCARGRPWYSETGTSAFDIWGQGTMVTVSS
# VL: DIQMTQSPSSLSASVGDRVTITCQASQDISNYLNWYQQKPGKAPKLLIYDASNLETGVPSRFSGSGSGTDFTFTISSLQPEDIATYYCQQSDHYPTFGGGTKVEIKR
# B2: ADI-25654, Fab (Fab, V domains shown)
# VH: B1 VH with V30R, N33D, V50Y, M52A, A57N
# VL: B1 VL
# B3: ADI-23515, Fab (Fab, V domains shown)
# VH: QVQLQESGPGLVKPSQTLSLTCTVSGGSIRSGAYYWSWIRQHPGKGLEWIGYIYYDGQTYYNPSLKSRVTISVDTSKNQFSLKLSSVTAADTAVYYCARDVGYPHYYGMDVWGQGTTVTVSS
# VL: EIVLTQSPGTLSLSPGERATLSCRASQSVSSSYLAWYQQKPGQAPRLLIYGASSRATGIPDRFSGSGSGTDFTLTISRLEPEDFAVYYCQQSERSPFTFGGGTKVEIKR
# B4: ADI-23518, Fab (Fab, V domains shown)
# VH: B3 VH with R30S, Y34S, D56S, Q58E
# VL: B3 VL
# B5: ADI-23519, Fab (Fab, V domains shown)
# VH: B3 VH with R30S, A33S, Y34S, Y55M, D56S, Q58E
# VL: B3 VL
# B6: ADI-25650, Fab (Fab, V domains shown)
# VH: B1 VH with V30S, S31V, M52A
# VL: B1 VL
# B7: ADI-25651, Fab (Fab, V domains shown)
# VH: B1 VH with V30S, Y32R, M52A, A57L
# VL: B1 VL
# B8: ADI-25652, Fab (Fab, V domains shown)
# VH: B1 VH with M52A, A57V
# VL: B1 VL
# B9: ADI-20112, Fab (Fab, V domains shown)
# VH: B1 VH with V30S, N33G, M52S, A57N
# VL: B1 VL
# B10: ADI-25652, IgG1 format (antibody, V domains shown)
# VH: B1 VH with M52A, A57V
# VL: B1 VL
# notes: Made in yeast
# B11: ADI-25650, IgG1 format (antibody, V domains shown)
# VH: B1 VH with V30S, S31V, M52A
# VL: B1 VL
# notes: Made in yeast
# B12: ADI-25651, IgG1 format (antibody, V domains shown)
# VH: B1 VH with V30S, Y32R, M52A, A57L
# VL: B1 VL
# notes: Made in yeast
# B13: ADI-25653, IgG1 format (antibody, V domains shown)
# VH: B1 VH
# VL: B1 VL
# notes: Made in yeast
# B14: ADI-23518, IgG1 format (antibody, V domains shown)
# VH: B3 VH with R30S, Y34S, D56S, Q58E
# VL: B3 VL
# notes: Made in yeast
# B15: ADI-23519, IgG1 format (antibody, V domains shown)
# VH: B3 VH with R30S, A33S, Y34S, Y55M, D56S, Q58E
# VL: B3 VL
# notes: Made in yeast
# B16: ADI-20051, Fab (Fab, V domains shown)
# VH: QVQLQQWGAGLLKPSETLSLTCAVYGGSFSGYYWSWIRQPPGKGLEWIGEIDHSGSTNYNPSLKSRVTISVDTSKNQFSLKLSSVTAADTAVYYCARDGGGGYASPFDYWGQGTLVTVSS
# VL: EIVMTQSPATLSVSPGERATLSCRASQSVSSNLAWYQQKPGQAPRLLIYGASTRATGIPARFSGSGSGTEFTLTISSLQSEDFAVYYCQQYHAWPPTFGGGTKVEIKR
# B17: ADI-20065, Fab (Fab, V domains shown)
# VH: QLQLQESGPGLVKPSETLSLTCTVSGGSISSSSYYWGWIRQPPGKGLEWIGSIYYSGSTYYNPSLKSRVTISVDTSKNQFSLKLSSVTAADTAVYYCARDPGYSASPNWFDPWGQGTLVTVSS
# VL: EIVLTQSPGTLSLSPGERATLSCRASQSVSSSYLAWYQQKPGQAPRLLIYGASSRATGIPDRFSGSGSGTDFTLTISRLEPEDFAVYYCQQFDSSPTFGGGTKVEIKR
# B18: ADI-20066, Fab (Fab, V domains shown)
# VH: B17 VH
# VL: B3 VL with Y33F, S92Y, E93D, R94V, S95F, F97I
# B19: ADI-20113, Fab (Fab, V domains shown)
# VH: B1 VH with V30S, N33G, M52S, A57N
# VL: EIVMTQSPATLSVSPGERATLSCRASQSVSSNLAWYQQKPGQAPRLLIYSASTRATGIPARFSGSGSGTEFTLTISSLQSEDFAVYYCQQHNVYPPYTFGGGTKVEIKR
# B20: ADI-20118, Fab (Fab, V domains shown)
# VH: QVQLVQSGAEVKKPGASVKVSCKASGYTFTSYAISWVRQAPGQGLEWMGWISAYNGNTNYAQKLQGRVTMTTDTSTSTAYMELRSLRSDDTAVYYCARSGGGSGPNWFDPWGQGTLVTVSS
# VL: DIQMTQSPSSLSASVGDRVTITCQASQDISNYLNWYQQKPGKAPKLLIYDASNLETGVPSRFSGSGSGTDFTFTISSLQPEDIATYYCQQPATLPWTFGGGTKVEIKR
# Target: T4, human OX40_Fc (R&D Systems) (human, UniProt P43489 29-216)
# T4 construct: Bought
# Assay: BLI, hOX40-Fc on tip, Fab 200 nM, monovalent
row,Binder,Kd [nM]
1,B1,1.63
2,B2,1.8
3,B3,3.79
4,B4,7.16
5,B5,5.36
6,B6,1.04
7,B7,2.32
8,B8,1.31
9,B9,63.9

# Target: T1, Human biotinylated OX40-His monomer
# Assay: MSD-SET, biotinylated OX40-His monomer with Fab
row,Binder,Kd [nM]
1,B1,0.086
2,B2,0.18
3,B3,0.16
4,B6,0.14
5,B7,0.17
6,B8,0.15

# Target: T2, human OX40 on cells (CHO-hOX40, …)
# Assay: flow cytometry, MFI on CHO-hOX40 over wild-type CHO
row,Binder,Fold difference [fold]
1,B10,2400
2,B11,2040
3,B12,2340
4,B13,2320
5,B14,1480

# Target: T4, human OX40_Fc (R&D Systems)
# Assay: BLI, IgG1 on tip, hOX40-Fc 50 nM, avid
row,Binder,Kd [nM]
1,B10,0.261
2,B11,0.23
3,B12,0.268
4,B13,0.223
5,B14,0.297
6,B15,0.255

# Target: T3, mouse OX40Fc (Acro Biosystems)
# Assay: BLI, IgG1 on tip, mouse OX40-Fc in solution
row,Binder,binding result
1,B10,no binding (tested: 100 nM)
2,B11,no binding (tested: 100 nM)
3,B12,no binding (tested: 100 nM)
4,B13,no binding (tested: 100 nM)

# Target: T2, human OX40 on cells (CHO-hOX40, …)
# Assay: flow cytometry, CHO-hOX40, 100 nM
row,Binder,CHO-OX40 binding intensity (MFI)
1,B10,253000
2,B11,252000
3,B12,253000
4,B13,252000
5,B14,173000

# Target: T5, cyno OX40_Fc (Acro Biosystems) (cyno)
# T5 construct: Bought
# Assay: BLI, IgG1 on tip, cyno OX40-Fc 100 nM, avid
# Description: Sensors with loaded antibodies were exposed to 100 nM OX40 antigens for 5 min, afterwards they were transferred to assay buffer for dissociation of 5 min for off-rate measurement. Kinetics was analysed using the 1:1 binding model.
row,Binder,Kd [nM]
1,B10,2.11
2,B11,1.6
3,B12,1.37
4,B13,1.15
5,B14,1.08
6,B15,1.1

# Target: T4, human OX40_Fc (R&D Systems)
# Assay: BLI, hOX40-Fc on tip, Fab 200 nM, monovalent
# Remark: another data set of the same source
row,Binder,Kd [nM]
1,B16,25.8
2,B17,10.8
3,B18,21.8
4,B9,70.6
5,B19,182
6,B20,137
